From patent publication US20230265151A1, “GIP/GLP1 CO-AGONIST COMPOUNDS” (priority 2020, published 2023)

Columns and labels:
Assay in all cases: cell-based or functional assay
[1] = target: T1, human GIP receptor (human, UniProt P48546 22-466)
T1 sequence (looked up): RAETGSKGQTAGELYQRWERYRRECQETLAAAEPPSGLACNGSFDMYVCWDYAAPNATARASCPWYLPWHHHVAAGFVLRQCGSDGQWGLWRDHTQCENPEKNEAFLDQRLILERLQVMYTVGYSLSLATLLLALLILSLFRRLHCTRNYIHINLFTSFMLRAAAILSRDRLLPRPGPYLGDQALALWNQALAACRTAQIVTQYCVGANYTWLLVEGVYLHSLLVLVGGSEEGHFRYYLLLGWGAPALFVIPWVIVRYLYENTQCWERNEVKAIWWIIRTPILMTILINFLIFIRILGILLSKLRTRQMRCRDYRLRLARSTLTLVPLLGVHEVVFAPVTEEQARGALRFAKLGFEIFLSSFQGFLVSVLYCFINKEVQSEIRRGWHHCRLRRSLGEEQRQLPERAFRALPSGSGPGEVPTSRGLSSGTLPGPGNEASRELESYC

[2] = target: human GLP-1 receptor (human, UniProt P43220 24-463)
[3] = target: human glucagon receptor (human, UniProt P47871 26-477)

Binder	cAMP EC50 (1.0% HSA) [1] [nM]	cAMP Emax (1.0% HSA) [1] [%]	cAMP EC50 (1.0% HSA) [2] [nM]	cAMP Emax (1.0% HSA) [2] [%]	cAMP EC50 (1.0% HSA) [3] [nM]
YXEGTXTSDXSIXLDXIAQXEFIKXLIEGGPSSGAPPPSK (Aib2, αMeF(2F)6, 4Pal10, αMeL13, Orn16, Aib20, αMeY25; acylated K24, K40 (groups as in name); C-terminal amide)	1.24	80.7	21.2	109	> 9950
YXEGTXTSDXSIXLDXKAQXEXIXXLIEGGKSSGAPPPS (Aib2, αMeF(2F)6, 4Pal10, αMeL13, Orn16, Aib20, 3ClPhe22, D-Glu24, αMeY25; acylated K17, K31 (groups as in name); C-terminal amide)	1.27		34	85.8	> 9950
YXEGTXTSDXSIXLDXKAQXXFIXXLIEGGKSSGAPPPS (Aib2, αMeF(2F)6, 4Pal10, αMeL13, Orn16, Aib20, 4Pal21, D-Glu24, αMeY25; acylated K17, K31 (groups as in name); C-terminal amide)	0.718	89.6	36		> 9950
YXEGTXTSDXSIXLDXKAQXEXIXXLIEGGKSSGAPPPS (Aib2, αMeF(2F)6, 4Pal10, αMeL13, Orn16, Aib20, 3FPhe22, D-Glu24, αMeY25; acylated K17, K31 (groups as in name); C-terminal amide)	0.986	90.5	27	87.8	> 9950
YXEGTXTSDXGIXLDXKAQXEFIXXLIEGGKSSGAPPPS (Aib2, αMeF(2F)6, 4Pal10, αMeL13, Orn16, Aib20, D-Glu24, αMeY25; acylated K17, K31 (groups as in name); C-terminal amide)	2.61	98.3	402	123	> 9950
YXEGTXTSDXXIXLDXKAQXEFIXXLIEGGKSSGAPPPS (Aib2, αMeF(2F)6, 4Pal10, Dap11, αMeL13, Orn16, Aib20, D-Glu24, αMeY25; acylated K17, K31 (groups as in name); C-terminal amide)	2.45	77.1	70	100	> 9950
YXEGTXTSDXSIXLDXKAQXEFIXXLIEGGKSSGAPPPX (Aib2, αMeF(2F)6, 4Pal10, αMeL13, Orn16, Aib20, D-Glu24, αMeY25, Orn39; acylated K17, K31 (groups as in name); C-terminal amide)	1.34	93	70.5	103	> 9950
YXEGTXTSDXSIXLDXKGQXEFIXXLIEGGKSSGAPPPS (Aib2, αMeF(2F)6, 4Pal10, αMeL13, Orn16, Aib20, D-Glu24, αMeY25; acylated K17, K31 (groups as in name); C-terminal amide)	2.36	96.9	367		> 9950
YXEGTXTSDXSIXLDXKAQXEXIXXLIEGGKSSGAPPPS (Aib2, αMeF(2F)6, Ac5c10, αMeL13, Orn16, Aib20, αMeF22, D-Glu24, αMeY25; acylated K17, K31 (groups as in name); C-terminal amide)	2.81		145	113	> 9950
YXEGTXTSDXSIXLDXKAQXEFIXXLIEGGKSSGAPPPS (Aib2, αMeF(2F)6, αMeF(2F)10, αMeL13, Orn16, Aib20, D-Glu24, αMeY25; acylated K17, K31 (groups as in name); C-terminal amide)	4.84		80		> 9950
YXEGTXTSDXSIXLDXKAQXEFIXXLIEGGKSSGAPPPS (Aib2, αMeF(2F)6, ChG10, αMeL13, Orn16, Aib20, D-Glu24, αMeY25; acylated K17, K31 (groups as in name); C-terminal amide)	5.49		227		> 9950
YXEGTXTSDXSIXLDXKAQXEFIXXLIEGGKSSGAPPPS (Aib2, αMeF(2F)6, ChA10, αMeL13, Orn16, Aib20, D-Glu24, αMeY25; acylated K17, K31 (groups as in name); C-terminal amide)	4.97		58.1		> 9950
YXEGTXTSDXSIXLDXKAQXEXIXXLIEGGKSSGAPPPS (Aib2, αMeF(2F)6, 4Pal10, αMeL13, Orn16, Aib20, 2FPhe22, D-Glu24, αMeY25; acylated K17, K31 (groups as in name); C-terminal amide)	0.771		47.6	98	> 9950
